# According to publication PMC4878814, “Mechanism of Human Nucleocytoplasmic Hexosaminidase D” (Biochemistry, 2016):
# T1: hexosaminidase D (HexD) (Homo sapiens, UniProt Q8WVB3)
# T1 construct: human HexD in pET30a vector, expressed in E. coli BL21(DE3)
# T1 sequence (Q8WVB3 1-486): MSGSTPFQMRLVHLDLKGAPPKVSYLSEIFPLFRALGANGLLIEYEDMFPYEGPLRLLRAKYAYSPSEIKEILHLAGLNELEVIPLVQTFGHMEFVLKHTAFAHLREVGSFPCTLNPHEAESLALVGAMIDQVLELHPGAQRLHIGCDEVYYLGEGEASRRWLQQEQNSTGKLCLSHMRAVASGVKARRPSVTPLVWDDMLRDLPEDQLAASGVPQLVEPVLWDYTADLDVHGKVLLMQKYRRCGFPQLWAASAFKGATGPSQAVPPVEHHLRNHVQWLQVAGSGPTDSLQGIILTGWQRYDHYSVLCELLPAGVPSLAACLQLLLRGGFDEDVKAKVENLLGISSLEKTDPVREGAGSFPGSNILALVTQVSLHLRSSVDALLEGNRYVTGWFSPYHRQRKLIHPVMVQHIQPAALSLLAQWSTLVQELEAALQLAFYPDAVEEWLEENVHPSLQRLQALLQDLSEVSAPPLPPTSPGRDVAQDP
# T2: murine HexD (Mus musculus, UniProt Q3U4H6)
# T2 sequence (Q3U4H6 1-486): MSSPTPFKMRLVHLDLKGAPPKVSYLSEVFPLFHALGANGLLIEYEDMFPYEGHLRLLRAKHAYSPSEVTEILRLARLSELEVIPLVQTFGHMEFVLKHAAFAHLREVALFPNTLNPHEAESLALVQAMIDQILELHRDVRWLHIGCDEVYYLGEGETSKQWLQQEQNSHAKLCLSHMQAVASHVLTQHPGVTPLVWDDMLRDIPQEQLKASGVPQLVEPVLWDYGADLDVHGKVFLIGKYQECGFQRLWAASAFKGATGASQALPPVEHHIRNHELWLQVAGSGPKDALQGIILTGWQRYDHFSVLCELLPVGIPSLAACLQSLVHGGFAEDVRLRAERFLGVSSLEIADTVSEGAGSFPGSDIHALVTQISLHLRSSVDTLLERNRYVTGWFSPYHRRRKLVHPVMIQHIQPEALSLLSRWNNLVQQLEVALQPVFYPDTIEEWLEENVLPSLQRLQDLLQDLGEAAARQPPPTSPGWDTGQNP
# B1: hexosaminidase D (HexD) (Homo sapiens) (protein)
# chain: T1 sequence (Q8WVB3 1-486)
# notes: human HexD in pET30a vector, expressed in E. coli BL21(DE3)
# What was measured:
# hexosaminidase D (HexD) = target: T1, hexosaminidase D (HexD); assay: inhibition of purified enzyme hydrolysis of PNP-GalNAc, absorbance, Lineweaver-Burk and nonlinear regression; assay type: biochemical
# murine HexD = target: T2, murine HexD; assay: enzyme inhibition, preliminary studies (data not shown); assay type: biochemical
# [1] = substrate: CC(=O)N[C@H]1[C@H](Oc2ccc([N+](=O)[O-])cc2)O[C@H](CO)[C@H](O)[C@@H]1O; assay: Michaelis-Menten kinetics of hydrolysis by purified enzyme (KM); hydrolysis also followed by 1H NMR; assay type: biochemical, Homo sapiens; details: active site; Asp148 polarizing residue, Glu149 general acid/base
# purified protein [2] = substrate: CC(=O)N[C@H]1[C@H](Oc2ccc([N+](=O)[O-])c(F)c2)O[C@H](CO)[C@@H](O)[C@@H]1O; assay: purified protein
# purified protein [3] = substrate: CC(=O)N[C@H]1[C@H](Oc2ccc([N+](=O)[O-])c(F)c2)O[C@H](CO)[C@H](O)[C@@H]1O; assay: purified protein
# purified protein [4] = substrate: CC(=O)N[C@H]1[C@H](Oc2ccc([N+](=O)[O-])cc2)O[C@H](CO)[C@@H](O)[C@@H]1O; assay: purified protein
# purified protein [5] = substrate: O=C(CF)N[C@H]1[C@H](Oc2ccc([N+](=O)[O-])cc2)O[C@H](CO)[C@H](O)[C@@H]1O; assay: purified protein
# purified protein [6] = substrate: O=C(N[C@H]1[C@H](Oc2ccc([N+](=O)[O-])cc2)O[C@H](CO)[C@H](O)[C@@H]1O)C(F)(F)F; assay: purified protein
# purified protein [7] = substrate: O=C(N[C@H]1[C@H](Oc2ccc([N+](=O)[O-])cc2)O[C@H](CO)[C@H](O)[C@@H]1O)C(F)F; assay: purified protein
molecule,measurement,setting,value
"CC1=N[C@@H]2[C@@H](O)[C@@H](O)[C@@H](CO)O[C@@H]2S1 [compound 4, Gal-NAG-thiazoline]",Ki,hexosaminidase D (HexD),420 nM
same,Ki,murine HexD,520 nM
B1,Km,[1],72.1 ± 4.8 µM
same,kcat,[1],1.32 ± 0.02 s⁻¹
same,kcat/Km,[1],18200 ± 1250 M⁻¹ s⁻¹
same,Km,purified protein [2],852 ± 54 µM
same,kcat,purified protein [2],1.54 ± 0.045 s⁻¹
same,kcat/Km,purified protein [2],1820 ± 127 M⁻¹ s⁻¹
same,Km,purified protein [3],172 ± 19 µM
same,kcat,purified protein [3],2.03 ± 0.065 s⁻¹
same,kcat/Km,purified protein [3],11800 ± 1350 M⁻¹ s⁻¹
same,Km,purified protein [4],607 ± 53 µM
same,kcat,purified protein [4],0.507 ± 0.0148 s⁻¹
same,kcat/Km,purified protein [4],835 ± 76.7 M⁻¹ s⁻¹
same,Km,purified protein [5],533 ± 17 µM
same,kcat,purified protein [5],2.6 ± 0.0317 s⁻¹
same,kcat/Km,purified protein [5],4980 ± 183 M⁻¹ s⁻¹
same,Km,purified protein [6],103 ± 27 µM
same,kcat,purified protein [6],0.042 ± 0.00283 s⁻¹
same,kcat/Km,purified protein [6],408 ± 108 M⁻¹ s⁻¹
same,Km,purified protein [7],102 ± 16 µM
same,kcat,purified protein [7],0.27 ± 0.0108 s⁻¹
same,kcat/Km,purified protein [7],2650 ± 417 M⁻¹ s⁻¹
